Our source for the Kd values is PMC10395195.

Assay [1] deals with Tle1^Vc (Vibrio cholerae E1). Put plainly: SPR. For orientation: In SPR one partner is held on a chip, and binding of the other changes the refractive index at the surface.
Assay [2] has as its target Tle1^Vc (Vibrio cholerae E1). Put plainly: ITC. Background: ITC needs no label: the signal is the heat of the interaction.

In general, Kd refers to the constant that tells how readily two partners part at equilibrium. Read a high Kd as weaker binding. In assay [1], VgrG1^E1 (natural protein) had a Kd of 2.03 µM.

In assay [2], Tli1^tox- (natural protein) registered a Kd of 0.00035 µM.
